From the DeepSol protein solubility set come the findings set out here.

A short description of the data set: soluble on expression in E. coli; label from the status in PepcDB or PDB records.
As for “MSLEEYNLIKPSHCKCQIVELEDIYRRDLNLLVALRVLIEESSVSKAATRLNLSQSAMSRVLGRLRDLLGDPLFTRQGQHLIPTQKALEIDRSLGEPLESLRQLLSPVEFDPQQCDQTFTIATTDYAMQTILPFALPRIYQEAPNVSFNFLPLQHDRLSDQLTYEGADLAICRPTGPVEPLRSEILGRVGVLCLLSKQHPLANQEMSLDDYLSHPHAMIAISDGVKALIEQALIDKPQRKMVLRAYHLEAALAIVDTLPIIITVPADLAYLVAERYDLVVKPLPFQFTPFDYSMIWHARCEHSPAQEWLRSVVREECSRLIAKRIEDMGLNEGHHHHHH”, the “soluble on expression in E. coli” value was “soluble”.
As to “SLDITFIDETEKVPTEEIKEIENLLQFAAGFLEIAEDTEMSVTFTDNAGIQMINRDYRGKDMPTDVISFALEDEGEDELPIIFDDEELAELPRNLGDLIISTERAAEQAVEYGHTLEREMGFLAVHGFLHLNGYDHMEPEDEKEMFGLQKEILDAYGLKR”, the “soluble on expression in E. coli” value is on record as “soluble”.
Under “SMSEATPCIKAISPSEGWTTGGATVIIIGDNFFDGLQVVFGTMLVWSELITPHAIRVQTPPRHIPGVVEVTLSYKSKQFCKGAPGRFVYTALNEPTIDYGFQRLQKVIPRHPGDPERLPKEVLLKRAADLVEALYGMPHNNQEIILKRAADIAEALYSV” stands “soluble”.
As to “MARVEGELFKIARASLEAEPIAWRYRYVKKGVMDSQGELWVGDWKYVPKKEDCNDRPNYEIQALFTAPPVPVTSEELVKAVHFYEQLKRENPPASGNQINGLTMSVKRPAN”, the “soluble on expression in E. coli” value is on record as “not soluble”.
With “MGFLPISLLHLVIKLLKNSLRKSSRELKDNFYDEPYIVLSELRELKTYFSILSAIAAGKRKPSEMANEVDLEGRKIHSYIETLIRLGFVERDLLVARKEKRWLYIISDPMLMSWFSLVYPKRTEIEIGAMTIDDVKEILQRIFSFRFEQVSREFLIELNRKGNLPFRFTKIGRWWHKEEEIDIVALNEKEKKSLLIEIKWKELKEREIKGILNDLELEGWDKIYGVIAKKVQKKENLWERGFLIWDLEDLDVLAAALEHHHHHH”, the “soluble on expression in E. coli” value was “not soluble”.
Consider “MAHHHHHHMLNPTFSLYRKTLQSYPVPPKIRHYDRRWSGSRTNPYNRQYWRVIMNENYSRPSFWVSDFRHRYLMRTGTDYQGQVPSSPQPGLYQGFSDVHKLLANHPKPQRESRHLPVLPMTPRVVFEHANEKRIDTAKKMRRDRRRIEELKTLEFWGWYMKLQRVRGRWCREQGVSSRGVYGPAVDAAELWG”, for which the “soluble on expression in E. coli” value was “not soluble”.
Regarding “MNDQEFFTVHHALTINVEPLAEHFTLPSHEIFEAEIPAPFVVASEFSQLEQLSDSARMELKNSDFKSVLQLLEAQNAKLNLLLTFMLSQQDDPQSRSATTRFGASQLTYLAKSPLQIGQKVRVKLFLEYPAAAIYCYASVMQCQQEPEHTLVTLKYDLLRDVDQDLLIKAALYQQQRLLRQRSLDREKPQA”, the “soluble on expression in E. coli” value is recorded as “soluble”.
The value for “YPPSMDWRKKGNFVSPVKNQGSCGSCWTFSTTGALESAVAIATGKMLSLAEQQLVDCAQNFNNHGCQGGLPSQAFEYIRYNKGIMGEDTYPYKGQDDHCKFQPDKAIAFVKDVANITMNDEEAMVEAVALYNPVSFAFEVTNDFLMYRKGIYSSTSCHKTPDKVNHAVLAVGYGEENGIPYWIVKNSWGPQWGMNGYFLIERGKNMCGLAACASYPIPLV” was “soluble”; that for “MYGISVFLGEEITNDTIIYIKKMKALGFDGIFTSLHIPEDDTSLYRQRLTDLGAIAKAEKMKIMVDISGEALKRAGFSFDELEPLIELGVTGLRMDYGITIEQMAHASHKIDIGLNASTITLEEVAELKAHQADFSRLEAWHNYYPRPETGIGTTFFNEKNRWLKELGLQVFTFVPGDGQTRGPIFAGLPTLEKHRGQNPFAAAVGLMADPYVDAVYIGDPTISERTMAQFGYYHQTNQFLLEVAPSESRYLKRILGTHTNRLDAARDVLRSELSRTSEMFRKDEIATIESEQTEARPVGTVTIDNEKYGRYMGEIQVTLVDLPKDEKVNTITRIIEKDQTILPLIKAGNQFTLVTEGTIENEFRKLNN” was “soluble”.
The value for “MNLMDLANEHDALILAHNYQTPEIQDVAHHVGDSLALAKIAAESQASTIVLCGVYFMAETTKILSPEKRVIIPEPEAGCSLASSITAEQLRAWKAEHPEAAVVAYVNTTAEVKALSDVCCTSSNAVRVVESIDPDRDILFLPDQFLGAHVQRETGRKNIHVWLGECHVHADISPTHITEMAHNNPQADLYVHPECGCTTSALWLASQGDIPQARILSTGGMMEAARKTAASTVLVATEIGMLHQLRKANTATDFIPVNPYAACPFMQMITMEKLEKALVEGHHEVHVDPVLAQRARGAVEAMITL” was “not soluble”.
